# Reference: IntAct's records for PubMed 20059542
# B1: Ubiquitin domain-containing protein DSK2 (Saccharomyces cerevisiae), P48510 (parent)
# chain: MSLNIHIKSGQDKWEVNVAPESTVLQFKEAINKANGIPVANQRLIYSGKILKDDQTVESYHIQDGHSVHLVKSQPKPQTASAAGANNATATGAAAGTGATPNMSSGQSAGFNPLADLTSARYAGYLNMPSADMFGPDGGALNNDSNNQDELLRMMENPIFQSQMNEMLSNPQMLDFMIQSNPQLQAMGPQARQMLQSPMFRQMLTNPDMIRQSMQFARMMDPNAGMGSAGGAASAFPAPGGDAPEEGSNTNTTSSSNTGNNAGTNAGTNAGANTAANPFASLLNPALNPFANAGNAASTGMPAFDPALLASMFQPPVQASQAEDTRPPEERYEHQLRQLNDMGFFDFDRNVAALRRSGGSVQGALDSLLNGDV
# partner: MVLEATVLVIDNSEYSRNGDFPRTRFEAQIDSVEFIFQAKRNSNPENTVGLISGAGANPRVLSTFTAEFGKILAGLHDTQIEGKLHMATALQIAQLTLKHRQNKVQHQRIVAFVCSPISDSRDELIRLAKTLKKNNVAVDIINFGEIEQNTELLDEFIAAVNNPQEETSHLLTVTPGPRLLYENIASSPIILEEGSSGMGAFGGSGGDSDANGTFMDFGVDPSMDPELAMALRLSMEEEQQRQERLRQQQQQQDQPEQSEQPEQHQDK
# B2: Proteasomal ubiquitin receptor ADRM1 (Homo sapiens), Q16186 (parent)
# chain: MTTSGALFPSLVPGSRGASNKYLVEFRAGKMSLKGTTVTPDKRKGLVYIQQTDDSLIHFCWKDRTSGNVEDDLIIFPDDCEFKRVPQCPSGRVYVLKFKAGSKRLFFWMQEPKTDQDEEHCRKVNEYLNNPPMPGALGASGSSGHELSALGGEGGLQSLLGNMSHSQLMQLIGPAGLGGLGGLGALTGPGLASLLGSSGPPGSSSSSSSRSQSAAVTPSSTTSSTRATPAPSAPAAASATSPSPAPSSGNGASTAASPTQPIQLSDLQSILATMNVPAGPAGGQQVDLASVLTPEIMAPILANADVQERLLPYLPSGESLPQTADEIQNTLTSPQFQQALGMFSAALASGQLGPLMCQFGLPAEAVEAANKGDVEAFAKAMQNNAKPEQKEGDTKDKKDEEEDMSLD
# Variants of: B1
# Conditions: with rpn10_yeast RPN10, P38886
row,Variant,effect of a mutation on the interaction
1,MSLNIHIKSGQDKWEVNVAPESTVLQFKEAINKANGIPVANQRLIYSGKILKDDQTVESYHIQDGHSVHAAKSQPKPQTASAAGANNATATGAAAGTGATPNMSSGQSAGFNPLADLTSARYAGYLNMPSADMFGPDGGALNNDSNNQDELLRMMENPIFQSQMNEMLSNPQMLDFMIQSNPQLQAMGPQARQMLQSPMFRQMLTNPDMIRQSMQFARMMDPNAGMGSAGGAASAFPAPGGDAPEEGSNTNTTSSSNTGNNAGTNAGTNAGANTAANPFASLLNPALNPFANAGNAASTGMPAFDPALLASMFQPPVQASQAEDTRPPEERYEHQLRQLNDMGFFDFDRNVAALRRSGGSVQGALDSLLNGDV [L70A;V71A],disrupting interaction strength
2,MSLNIHIKSGQDKWEVNVAPESTVLQFKEAINKANGIPVANQRLIYSGKILKDDQTVESYHIQDGHSVHLAKSQPKPQTASAAGANNATATGAAAGTGATPNMSSGQSAGFNPLADLTSARYAGYLNMPSADMFGPDGGALNNDSNNQDELLRMMENPIFQSQMNEMLSNPQMLDFMIQSNPQLQAMGPQARQMLQSPMFRQMLTNPDMIRQSMQFARMMDPNAGMGSAGGAASAFPAPGGDAPEEGSNTNTTSSSNTGNNAGTNAGTNAGANTAANPFASLLNPALNPFANAGNAASTGMPAFDPALLASMFQPPVQASQAEDTRPPEERYEHQLRQLNDMGFFDFDRNVAALRRSGGSVQGALDSLLNGDV [V71A],with no effect

# Variants of: B1
# Conditions: with rpn10_yeast RPN10, P38886
# Remark: another data set of the same source
row,Variant,effect of a mutation on the interaction
1,MSLNIHIKSGQDKWEVNVAPESTVLQFKEAINKANGIPVANQRLIYSGKILKDDQTVESYHIQDGHSVHLAKSQPKPQTASAAGANNATATGAAAGTGATPNMSSGQSAGFNPLADLTSARYAGYLNMPSADMFGPDGGALNNDSNNQDELLRMMENPIFQSQMNEMLSNPQMLDFMIQSNPQLQAMGPQARQMLQSPMFRQMLTNPDMIRQSMQFARMMDPNAGMGSAGGAASAFPAPGGDAPEEGSNTNTTSSSNTGNNAGTNAGTNAGANTAANPFASLLNPALNPFANAGNAASTGMPAFDPALLASMFQPPVQASQAEDTRPPEERYEHQLRQLNDMGFFDFDRNVAALRRSGGSVQGALDSLLNGDV [V71A],disrupting interaction

# Variants of: B2
# Conditions: with ubql1_human UBQLN1, Q9UMX0
row,Variant,effect of a mutation on the interaction
1,MTTSGALFPSLVPGSRGASNKYLVEFRAGKMSLKGTTVTPDKRKGLVYIQQTDDSLIHFCWKDRTSGNVEDDLIIFPDNCEFKRVPQCPSGRVYVLKFKAGSKRLFFWMQEPKTDQDEEHCRKVNEYLNNPPMPGALGASGSSGHELSALGGEGGLQSLLGNMSHSQLMQLIGPAGLGGLGGLGALTGPGLASLLGSSGPPGSSSSSSSRSQSAAVTPSSTTSSTRATPAPSAPAAASATSPSPAPSSGNGASTAASPTQPIQLSDLQSILATMNVPAGPAGGQQVDLASVLTPEIMAPILANADVQERLLPYLPSGESLPQTADEIQNTLTSPQFQQALGMFSAALASGQLGPLMCQFGLPAEAVEAANKGDVEAFAKAMQNNAKPEQKEGDTKDKKDEEEDMSLD [D79N],decreasing interaction

# Variants of: B2
# Conditions: with dsk2_yeast DSK2, P48510
row,Variant,effect of a mutation on the interaction
1,MTTSGALFPSLVPGSRGASNKYLVEFRAGKMSLKGTTVTPDKRKGLVYIQQTDDSLIHFCWKDRTSGNVEDDLIIFPDNCEFKRVPQCPSGRVYVLKFKAGSKRLFFWMQEPKTDQDEEHCRKVNEYLNNPPMPGALGASGSSGHELSALGGEGGLQSLLGNMSHSQLMQLIGPAGLGGLGGLGALTGPGLASLLGSSGPPGSSSSSSSRSQSAAVTPSSTTSSTRATPAPSAPAAASATSPSPAPSSGNGASTAASPTQPIQLSDLQSILATMNVPAGPAGGQQVDLASVLTPEIMAPILANADVQERLLPYLPSGESLPQTADEIQNTLTSPQFQQALGMFSAALASGQLGPLMCQFGLPAEAVEAANKGDVEAFAKAMQNNAKPEQKEGDTKDKKDEEEDMSLD [D79N],disrupting interaction

# Variants of: B2
# Conditions: with ubc_human UBC
row,Variant,effect of a mutation on the interaction
1,MTTSGALFPSLVPGSRGASNKYLVEFRAGKMSLKGTTVTPDKRKGLVYIQQTDDSLIHFCWKDRTSGNVEDDLIIFPDNCEFKRVPQCPSGRVYVLKFKAGSKRLFFWMQEPKTDQDEEHCRKVNEYLNNPPMPGALGASGSSGHELSALGGEGGLQSLLGNMSHSQLMQLIGPAGLGGLGGLGALTGPGLASLLGSSGPPGSSSSSSSRSQSAAVTPSSTTSSTRATPAPSAPAAASATSPSPAPSSGNGASTAASPTQPIQLSDLQSILATMNVPAGPAGGQQVDLASVLTPEIMAPILANADVQERLLPYLPSGESLPQTADEIQNTLTSPQFQQALGMFSAALASGQLGPLMCQFGLPAEAVEAANKGDVEAFAKAMQNNAKPEQKEGDTKDKKDEEEDMSLD [D79N],decreasing interaction

# Variants of: B2
# Conditions: with ubql2_human UBQLN2, Q9UHD9
row,Variant,effect of a mutation on the interaction
1,MTTSGALFPSLVPGSRGASNKYLVEFRAGKMSLKGTTVTPDKRKGLVYIQQTDDSAIHFCWKDRTSGNVEDDLIIFPDDCEFKRVPQCPSGRVYVLKFKAGSKRLFFWMQEPKTDQDEEHCRKVNEYLNNPPMPGALGASGSSGHELSALGGEGGLQSLLGNMSHSQLMQLIGPAGLGGLGGLGALTGPGLASLLGSSGPPGSSSSSSSRSQSAAVTPSSTTSSTRATPAPSAPAAASATSPSPAPSSGNGASTAASPTQPIQLSDLQSILATMNVPAGPAGGQQVDLASVLTPEIMAPILANADVQERLLPYLPSGESLPQTADEIQNTLTSPQFQQALGMFSAALASGQLGPLMCQFGLPAEAVEAANKGDVEAFAKAMQNNAKPEQKEGDTKDKKDEEEDMSLD [L56A],disrupting interaction

# Variants of: B2
# Conditions: with dsk2_yeast DSK2, P48510
# Remark: another data set of the same source
row,Variant,effect of a mutation on the interaction
1,MTTSGALFPSLVPGSRGASNKYLVEFRAGKMSLKGTTVTPDKRKGLVYIQQTDDSAIHFCWKDRTSGNVEDDLIIFPDDCEFKRVPQCPSGRVYVLKFKAGSKRLFFWMQEPKTDQDEEHCRKVNEYLNNPPMPGALGASGSSGHELSALGGEGGLQSLLGNMSHSQLMQLIGPAGLGGLGGLGALTGPGLASLLGSSGPPGSSSSSSSRSQSAAVTPSSTTSSTRATPAPSAPAAASATSPSPAPSSGNGASTAASPTQPIQLSDLQSILATMNVPAGPAGGQQVDLASVLTPEIMAPILANADVQERLLPYLPSGESLPQTADEIQNTLTSPQFQQALGMFSAALASGQLGPLMCQFGLPAEAVEAANKGDVEAFAKAMQNNAKPEQKEGDTKDKKDEEEDMSLD [L56A],disrupting interaction

# Variants of: B2
# Conditions: with ubc_human UBC
# Remark: another data set of the same source
row,Variant,effect of a mutation on the interaction
1,MTTSGALFPSLVPGSRGASNKYLVEFRAGKMSLKGTTVTPDKRKGLVYIQQTDDSAIHFCWKDRTSGNVEDDLIIFPDDCEFKRVPQCPSGRVYVLKFKAGSKRLFFWMQEPKTDQDEEHCRKVNEYLNNPPMPGALGASGSSGHELSALGGEGGLQSLLGNMSHSQLMQLIGPAGLGGLGGLGALTGPGLASLLGSSGPPGSSSSSSSRSQSAAVTPSSTTSSTRATPAPSAPAAASATSPSPAPSSGNGASTAASPTQPIQLSDLQSILATMNVPAGPAGGQQVDLASVLTPEIMAPILANADVQERLLPYLPSGESLPQTADEIQNTLTSPQFQQALGMFSAALASGQLGPLMCQFGLPAEAVEAANKGDVEAFAKAMQNNAKPEQKEGDTKDKKDEEEDMSLD [L56A],decreasing interaction
